According to patent US20080220446A1, “Method for Detecting and/or Removing Protein and/or Peptide Comprising a Cross-Beta Structure From an Aqueous Solution Comprising a Protein” (priority 2005, published 2008):

What was measured:
tPA [1] = target: T1, tPA (Homo sapiens, UniProt P00750); experiment: Plasminogen-activation assay (tPA activation, S-2251); assay type: biochemical; settings: for tPA activating potential: Example 4, native, heat-denatured or alkylated preparation as labelled
Description: Plasmin (Pls) activity was assayed as described^16. Peptides and proteins that were tested for their stimulatory ability were regularly used at 100 μg ml^−1. […] Chromogenic substrate S-2251 (Chromogenix, Instrumentation Laboratory SpA, Milano, Italy) was used to measure Pls activity. Conversion of zymogen factor XII (#233490, Calbiochem, EMD Biosciences, Inc., San Diego, Calif.) to proteolytically active factor XII (factor XIIa) was assayed by measurement of the conversion of chromogenic substrate Chromozym-PK (Roche Diagnostics, Almere, The Netherlands) by kallikrein. Chromozym-PK was used at a concentration of 0.3 mM. Factor XII, human plasma prekallikrein (#529583, Calbiochem) and human plasma cofactor high-molecular weight kininogen (#422686, Calbiochem) were used at concentrations of 1 μg ml^−1. […] Assays were performed using microtiter plates (Costar, Cambridge, Mass., USA). Peptides and proteins were tested for their ability to activate factor XII. 150 μg ml^−1 kaolin, an established activator of factor XII was used as positive control and solvent (H2O) as negative control. The conversion of Chromozym-PK was recorded kinetically at 37° C. for at least 60 minutes. Assays were done in duplicate.
(§1) Formulated protein therapeutics were obtained from the local hospital pharmacy and were used as supplied by the manufacturers. […] Lyophilized therapeutics were dissolved according to the manufacturers recommendations. GH, zinc-insulin, Cealb and gelatin were stored at −20, 4, room temperature, 37 and 65° C. Other protein therapeutics were only kept at 4° C., and assayed for the presence of cross-β structure at shown time points. Enhancement in fluorescence of ThT and Congo red was measured with all formulated protein therapeutics. For this purpose, proteins were diluted to the indicated concentrations. […] Zinc-insulin was diluted tenfold in the activation assay, GH was diluted to a final concentration of 500 μg ml^−1. Activation of factor XII and prekallikrein by the therapeutics was tested in the chromogenic factor XII assay (see above). […] After coating, plates were blocked with Blocking Reagent (Roche Diagnostics, Almere, The Netherlands).
(§2) To prepare structurally altered ovalbumin (OVA) with amyloid cross-β structures, purified OVA (Sigma, A-7641, lot 071k7094) was heated to 85° C. One mg ml^−1 OVA in 67 mM NaPi buffer pH 7.0, 100 mM NaCl, was heated for two cycles in PCR cups in a PTC-200 thermal cycler (MJ Research, Inc., Waltham, Mass., USA). In each cycle, OVA was heated from 30 to 85° C. at a rate of 5° C./min. Native OVA (nOVA) and heat-denatured OVA (dOVA) were tested in the ThT fluorescence assay and in the Plg-activation assay. In the fluorescence assay and in the Plg-activation assay, 25 and 100 μg ml^−1 nOVA and dOVA were tested, respectively. TEM images of nOVA and dOVA were taken to check for the presence of large aggregates.
MSA (#126674, Calbiochem) was dissolved in 8 M urea, 100 mM Tris-HCl pH 8.2, at 10 mg ml^−1 final concentration. Dithiothreitol (DTT) was added to a final concentration of 10 mM. Air was replaced by N2 and the solution was incubated for 2 h at room temperature. Then, the solution was transferred to ice and iodoacetamide was added from a 1 M stock to a final concentration of 20 mM. […] Alkyl-MSA was dialyzed against H2O before use. […] In the ThT-fluorescence assay 25 μg ml^−1 nMSA and alkyl-MSA were tested, and in the Plg-activation assay 100 μg ml^−1 was tested. The presence of aggregates or fibrils was analyzed using TEM.
Lyophilized sterile glucagon was dissolved at 1 mg ml^−1 in H2O with 10 mM HCl. The solution was subsequently kept at 37° C. for 24 h, at 4° C. for 14 days and again at 37° C. for 9 days. […] TEM analysis was performed to assess the presence of large multimeric structures.

[2] = Thioflavin T fluorescence of protein solutions; assay type: physicochemical
Description: (§3) Fluorescence of ThT—protein/peptide adducts was measured as follows. […] Fluorescence was measured at 485 nm upon excitation at 435 nm. Background signals from buffer, buffer with ThT and protein/peptide solution without ThT were subtracted from corresponding measurements with protein solution incubated with ThT. Regularly, fluorescence of Aβ was used as a positive control, and fluorescence of FP10, a non-amyloid fibrin fragment^16, was used as a negative control. Fluorescence was measured in triplicate on a Hitachi F-4500 fluorescence spectrophotometer (Ltd., Tokyo, Japan).
as §1
ThT fluorescence of β2GPI was measured as follows. […] CL vesicles were prepared according to an established procedure. Briefly, CL was dried under a stream of nitrogen. The lipids were resuspended to a concentration of 10 mg ml^−1 in 25 mM Tris-HCl, pH 7.3, 150 mM NaCl by vigorous agitation, using a vortex. In the ThT fluorescence assay, fluorescence of β2GPI in buffer, of CL or DXS500k in buffer, of buffer and ThT alone, and of β2GPI-CL adducts and β2GPI-DXS500k adducts, with or without ThT, was recorded as described above (section ThT fluorescence). In addition, TEM images were recorded with CL, β2GPI from human plasma, with or without CL, and with recombinant β2GPI, as described^5.
as §2
MSA (#126674, Calbiochem) was dissolved in 8 M urea, 100 mM Tris-HCl pH 8.2, at 10 mg ml^−1 final concentration. Dithiothreitol (DTT) was added to a final concentration of 10 mM. Air was replaced by N2 and the solution was incubated for 2 h at room temperature. Then, the solution was transferred to ice and iodoacetamide was added from a 1 M stock to a final concentration of 20 mM. […] In the ThT-fluorescence assay 25 μg ml^−1 nMSA and alkyl-MSA were tested, and in the Plg-activation assay 100 μg ml^−1 was tested. The presence of aggregates or fibrils was analyzed using TEM. […]

[3] = ThT fluorescence enhancement by biopharmaceuticals; assay type: physicochemical; settings: +/− SD; five μL of protein therapeutic
Description: as §3
(§4) β2-GPI was reduced and alkylated as follows. Sixhundredforty μl of β2-GPI stock was mixed with 640 μl of 8 M Urea (cooled solution) in 0.1 M Tris pH-8.2. The solution was degassed with N2 gas for approximately 6 minutes. From a 1 M DTT stock 12.8 μl was added to the solution, mixed and incubated for 3 hours at room temperature. A 1 M Iodoacetamide (Sigma; I-6125) was prepared, of which 25.6 μl was added to the β2-GPI reaction mixture. The solution was subsequently dialysed against PBS. […] Signals obtained with alkyl-β2gpi are compared with those obtained with native β2gpi starting material and with positive control acid/heat denatured amyloid-like misfolded γ-globulins.
(§5) Protein therapeutics were obtained from the local hospital pharmacy and analyzed within the expiry limits as stated by the manufacturers.
(§6) Fluorescence of Thioflavin T (ThT; Sigma T-3516, St. Louis, Mo., USA) and Congo red (CR; Aldrich Chemical Company Inc., Milwaukee, Wis., USA) was measured on a Hitachi F-4500 spectrophotometer at an excitation wavelength of 435 nm and emission wavelength of 485 nm for ThT and an excitation wavelength of 550 nm and emission wavelength of 595 nm for Congo red. […] Fluorescence was measured in triplicate. Background fluorescence of both protein in buffer and dye-solution were subtracted from the total fluorescence signal. Five μg/mL fibrillar amyloid-β(1-40) E22Q (Peptide Synthesis Facility of the Dutch Cancer Institute NKI, Amsterdam, The Netherlands) was used as a positive control in all fluorescence assays.

tPA [4] = target: T1, tPA; experiment: tPA/plasminogen activation assay; assay type: biochemical; settings: % of standardized positive control; 1:10 diluted samples
Description: as §4
Exiqon Peptide Immobilizer plates were blocked for 1 hour with PBS, 1% Tween20 and rinsed twice with distilled water. The conversion of the chromogenic substrate S-2251 (Chromogenix, Italy) by plasmin was kinetically measured at 37° C. on a Spectramax340 microplate reader at a wavelength of 405 nm. […] Denatured γ-globulins (100 μg/ml) with amyloid-like structure was used as reference and positive control. Lyophilized γ-globulins (Sigma, Mo., USA) were dissolved in a 1(:)1 volume ratio of 1,1,1,3,3,3-hexafluoro-2-propanol and trifluoro-acetic acid and subsequently dried under air. Dried γ-globulins was dissolved in H2O to a final concentration of 1 mg/ml and kept at room temperature for at least three days and subsequently stored at −20° C.
as §5

[5] = Stability testing of biopharmaceuticals under denaturing conditions; assay type: physicochemical; settings: after exposure to harsh denaturing conditions (low pH or heat)
Description: For this purpose, 5 mg/mL Glucagon (Glucagen; Novo Nordisk Farma B. V., Alphen aan de Rijn, The Netherlands) was incubated at 37° C. in 0.01 M HCl for 48 hours. One mg/mL Etanercept (Enbrel; Wyeth Pharmaceuticals B. V., Hoofddorp, The Netherlands) in 67 mM sodium phosphate buffer, 100 mM NaCl pH 7.0 was gradually heated from 30° C. to 85° C. over a period of 12 minutes and afterwards cooled to 4° C. for 5 minutes, this treatment was repeated 4 times. Abciximab (Reopro; Centocor B. V., Leiden, The Netherlands) and Infliximab (Remicade; Schering-Plough B. V., Utrecht, The Netherlands) were incubated at 65° C. for 16 and 72 hours, respectively.

[6] = Congo red fluorescence enhancement by biopharmaceuticals; assay type: physicochemical; settings: +/− SD; five μL of protein therapeutic
Description: Background signals from buffer, buffer with Congo red and protein/peptide solution without Congo red were subtracted from corresponding measurements with protein solution incubated with Congo red. Fluorescence was measured in triplicate on a Hitachi F-4500 fluorescence spectrophotometer (Ltd., Tokyo, Japan).
as §5, §6

tPA [7] = target: T1, tPA; experiment: tPA binding assay with immobilized biopharmaceuticals in an ELISA; settings: coated 1:10, one-site binding model
Description: Plates were washed twice with Tris buffered saline pH 7.2 containing 0.1% Tween20 (TBST) and blocked with PBS containing 1% Tween20 for 1 hour at room temperature. […] Plates were washed five times with TBST and incubated with peroxidase labeled anti-mouse immunoglobulins (RAMPO; DAKOCytomation, Glostrup, Denmark) diluted 1:3000 in PBST for 30 minutes at room temperature. Plates were washed five times with PBS 0.1% Tween20, and stained with 100 μL/well of tetramethyl-benzidine (TMB) substrate (Biosource Europe, Nivelles, Belgium). The reaction was terminated with 50 μL/well of 2 M H2SO4 and substrate conversion was read at 450 nm on a Spectramax340 microplate reader. Curves were fitted with a one-site binding model (GraphPad Prism version 4.02 for Windows, Graphpad Software, Calif., USA) from which Kd and Bmax were determined.
as §5

tPA [8] = target: T1, tPA; experiment: tPA ELISA with coated protein therapeutics; assay type: binding; settings: ELISA, stored at the recommended temperature of 4° C.
Description: as §1

[9] = target: T2, LRP cl-IV binding to BSA-AGE (Bos taurus, UniProt P02769); experiment: ELISA, interference with LRP cl-IV binding to BSA-AGE; set-up: species or system human; settings: concentration series, 50 times diluted LRP cl-IV medium
T2 construct: made in house; host or cells: HEK293E/S (LRP cl-IV, culture supernatant)
T2 sequence (P02769 25-607): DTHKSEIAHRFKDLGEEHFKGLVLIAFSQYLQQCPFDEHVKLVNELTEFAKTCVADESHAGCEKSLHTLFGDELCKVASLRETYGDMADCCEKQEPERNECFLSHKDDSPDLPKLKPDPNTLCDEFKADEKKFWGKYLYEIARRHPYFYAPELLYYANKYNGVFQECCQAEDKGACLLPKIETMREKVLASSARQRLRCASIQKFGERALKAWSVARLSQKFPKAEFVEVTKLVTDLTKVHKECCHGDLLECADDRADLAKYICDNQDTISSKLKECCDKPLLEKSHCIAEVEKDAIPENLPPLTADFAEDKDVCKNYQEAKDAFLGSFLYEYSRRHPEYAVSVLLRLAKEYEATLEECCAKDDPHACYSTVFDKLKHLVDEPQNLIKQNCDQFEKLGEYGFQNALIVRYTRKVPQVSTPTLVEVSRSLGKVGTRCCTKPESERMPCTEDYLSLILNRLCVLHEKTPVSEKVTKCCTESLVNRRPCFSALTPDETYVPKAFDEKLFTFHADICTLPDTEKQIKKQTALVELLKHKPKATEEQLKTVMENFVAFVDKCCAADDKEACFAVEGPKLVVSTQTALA
Description: To test whether amyloid-like crossbeta structure binding compounds tPA, Congo red, Thioflavin T and Thioflavin S interfere with LRP cl-IV binding to BSA-AGE, concentration series of the potential inhibitory amyloid binding moieties were tested in the presence of 50 times diluted medium containing LRP cl-IV. The following inhibitors were used: tPA, Congo red, Thioflavin T (ThT) and Thioflavin S (ThS). As a control to tPA, K2P tPA, which lacks the amyloid-like misfolded protein binding finger domain, was included in the analyses. The influence of tPA and K2P tPA was tested in the presence of 10 mM ε-amino caproic acid to avoid binding of the kringle2 domain of tPA and K2P tPA to lysine- and arginine residues. Binding buffer and K2P tPA serve as negative controls in these inhibition studies. The concentration series was measured in triplicate, the values averaged and standard deviations calculated. Background signals obtained with buffer-coated wells were subtracted. Signals obtained with binding of LRP cluster IV to BSA-AGE was set arbitrarily to a reference binding of 100% and signals obtained with the concentration series of misfolded protein binding moieties and K2P tPA were calculated based on this set reference.

[10] = glucagon after heat-denaturation at 37° C. at low pH in HCl buffer

T1 sequence (P00750 36-562): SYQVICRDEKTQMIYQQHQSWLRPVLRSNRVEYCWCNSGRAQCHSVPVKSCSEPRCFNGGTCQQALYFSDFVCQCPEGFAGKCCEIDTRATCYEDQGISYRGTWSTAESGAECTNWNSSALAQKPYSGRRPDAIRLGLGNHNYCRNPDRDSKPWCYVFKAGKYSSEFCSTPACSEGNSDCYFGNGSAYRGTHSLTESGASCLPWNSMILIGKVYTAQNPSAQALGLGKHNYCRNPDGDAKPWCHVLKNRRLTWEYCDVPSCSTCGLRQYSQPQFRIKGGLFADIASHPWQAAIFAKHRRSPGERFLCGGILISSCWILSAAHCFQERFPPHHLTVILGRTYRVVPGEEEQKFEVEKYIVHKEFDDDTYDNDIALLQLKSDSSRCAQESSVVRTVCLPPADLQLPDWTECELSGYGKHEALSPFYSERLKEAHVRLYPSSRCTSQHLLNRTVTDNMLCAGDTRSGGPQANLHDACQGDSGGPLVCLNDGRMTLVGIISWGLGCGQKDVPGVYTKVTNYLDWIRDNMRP

Substance | tPA activation Max. Activation (tPA [4]) | Fluorescence ThT [3] | amyloid-like properties (ThT-fluorescence and tPA activation) [5] | Fluorescence CR [6] | also measured
Etanercept | 0% | 23 +/− 3 a.u. | amyloid-like properties are adopted | – | tPA activating potential (tPA [1]): some tPA activation; enhancement of ThT fluorescence ([2]; Example 4, native, heat-denatured or alkylated preparation as labelled): some ThT fluorescence enhancement
Glucagon: human glucagon (Glucagen, Novo Nordisk) | 11.25% | 48 +/− 1 a.u. | amyloid-like properties are adopted | – | tPA activating potential (tPA [1]): some tPA activating potential; tPA activation (tPA [1]; [10]): potent activator of tPA; enhancement of ThT fluorescence [2, 10]: enhanced ThT fluorescence to a large extent
Thioflavin S [ThS] | – | – | – | – | influence on binding of LRP cl-IV to BSA-AGE [9]: inhibit binding of LRP cl-IV to BSA-AGE to a large extent
heat/acid-denatured glucagon: glucagon kept at 37° C. in 10 mM HCl | – | – | – | – | presence of cross-β structure conformation ([2]; conclusion from ThT fluorescence, Plg-activation assay and TEM): comprise the cross-β structure conformation

The next lines start with results.

tPA activation Max. Activation (tPA [4]) | Substance | Fluorescence ThT [3] | amyloid-like properties (ThT-fluorescence and tPA activation) [5] | Fluorescence CR [6] | also measured
0% | Infliximab: human-murine chimeric monoclonal antibody (Remicade-infliximab) | 19 +/− 1 a.u. | amyloid-like properties are adopted | 67 +/− 2 a.u. | –
70.93% | Insulin Aspart: rapid acting human insulin analogue (NovoRapid Flexpen, Novo Nordisk) | 172 +/− 3 a.u. | – | 81 +/− 2 a.u. | tPA activation (tPA [1]; protein solutions stored at 4° C.): activated tPA to a lesser extent, but still significantly; tPA Binding Bmax (tPA [7]): 3.617 OD450 nm
17.44% | Insulin Zn Suspension: recombinant human Zn2+-chelated insulin (Monotard, Novo Nordisk) | 387 +/− 72 a.u. | – | 79 +/− 6 a.u. | binding of tPA (tPA [8]): binding of tPA was established; tPA Binding Bmax (tPA [7]): 0.7558 OD450 nm
